# US6989364B1, “Methods for treating cardiac hypertrophy by administering IFN-γ” (Genentech, Inc., priority 1998, dated 2006)
# Columns and labels:
# [1] = test system: male Sprague/Dawley (SD) rats; test: Cardiac hypertrophy induced by fluprostenol in vivo: body and organ weights; set-up: species or system rat
# Description: This pharmacological model tests the ability of IFN-γ to inhibit cardiac hypertrophy induced in rats (e.g. male Wistar or Sprague-Dawley) by subcutaneous injection of fluprostenol (an agonist analog of PGF2α). It is known that rats with pathologic cardiac hypertrophy induced by myocardial infarction have chronically elevated levels of extractable PGF2α in their myocardium. Lai et al, Am. J. Physiol. (Heart Circ. Physiol.) 271:H2197–H2208 (1996). Accordingly, factors that can inhibit the effects of fluprostenol on myocardial growth in vivo are potentially useful for treating cardiac hypertrophy. The effects of IFN-γ on cardiac hypertrophy are determined by measuring the weight of heart, ventricles, and left ventricle (normalized by body weight) relative to fluprostenol-treated rats not receiving IFN-γ. A detailed description of this assay is provided in the examples.
# Animals All experimental procedures conformed to the guiding principles of the American Physiology Society, and were approved by Genentech's Institutional Animal Care and Use Committee. The animals used in this study were male Sprague/Dawley (SD) rats (8 weeks of age, Charles River Breeding Laboratories, Inc.). The animals were acclimated to the facility for at least one week before experiments, fed a pelleted rat chow and water ad libitum, and housed in a light and temperature controlled room.
# Administration of fluprostenol and/or IFN-γ Rats received subcutaneous injection of fluprostenol (Cayman Chemical, Ann Arbor, Mich.) at 0.15 mg/kg, recombinant mouse IFN-γ (Genentech, Inc., South San Francisco, Calif.) at 0.08 mg/kg, combination of fluprostenol and IFN-γ, or saline vehicle, twice a day for 14 days. In the IFN-γ and fluprostenol+IFN-γ groups, animals were pretreated with IFN-γ for one day. Body weight was measured before and after treatment. A previous study has shown that the dose of fluprostenol used here is the lowest dose which produces a significant cardiac hypertrophy in rats. Lai et al., supra.
# Measurement of organ weights Under anesthesia with ketamine/xylazine, the heart, kidney, and spleen were removed, dissected and weighed. The left ventricle was stored at […] for evaluation of gene expression.
# Statistical analyisis Results are expressed as mean±SEM. One way analysis of variance (ANOVA) was performed to assess differences in parameters between groups. Significant differences were then subjected to post hoc analysis using Newman-Keuls method; P<0.05 was considered significant.
# [2] = test system: adult rat cardiac myocytes; test: Inhibition of phenylephrine-induced spreading response of adult myocytes; format: cell-based; conditions: IFN-γ 500 U/ml, PE 10^−5 M, 72 hr
# Procedure: FIGS. 3A–3F Inhibition of phenylephedrine (PE)-induced spreading response by IFN-γ. Myocytes were pre-incubated with saline vehicle or IFN-γ (500 U/ml) on day of isolation. A second addition of vehicle or IFN-γ was performed 24h after isolation, along with the addition of either vehicle or PE (10^−5 M). After an additional 72 hr incubation, cells were fixed in glutaraldehyde, stained with eosin Y and viewed by fluorescence microscopy. A, B, C Cardiac myocytes after 4 days in culture: control, PE, and PE+IFN-γ, respectively. D, E, F Histographs showing maximum breadth of rod shaped cardiac myocytes versus percent frequency of breadth occurrence. The maximum breadth of rod-shaped cells was determined by fluorescence microscopy and imaging software. At least 200 rod shaped cells from a single experiment were examined per group. […] P<0.001 for all group comparisons. […]
# Isolated adult rat myocytes were plated on laminin-coated plates at a density of 3×10^3 cells/ml. After 72 hours of appropriate stimulation, the cells were fixed with gluteraldehyde and stained with Eosin Y. Images of rod shaped cells were captured under fluorescent microscopy and maximum breadth was determined using imaging software (Simple 32, Compix Imaging, Mars, Pa.).
# [3] = IFN-γ 0.08 mg/kg s.c. twice a day, rats
# [4] = s.c. twice a day for 14 days, fluprostenol 0.15 mg/kg, IFN-γ 0.08 mg/kg, mean ± SEM
substance,measurement,setting,value
"IFN-γ: recombinant mouse IFN-γ (Genentech, Inc., South San Francisco, Calif., or Genzyme, Cambridge, Mass.)","Ratio of heart, ventricular, and left ventricular weights to body weight (FIG. 4)","[1]; 14 days, fluprostenol and IFN-γ alone vs vehicle, fluprostenol+IFN-γ vs fluprostenol group",did not significantly alter
same,"Effect on body weight, pilot study",[1]; [3],little effects on body weight
same,"Effect on fluprostenol-induced cardiac hypertrophy, pilot study",[1]; [3],inhibited fluprostenol-induced cardiac hypertrophy
same,"BWO, basal levels of body weight","[1]; before treatment, mean ± SEM",292.5 ± 3.2 g
same,"BW, body weight post treatment",[1]; [4],380.8 ± 6.1 g
same,"HW, heart weight",[1]; [4],.956 ± .029 g
same,"KW, kidney weight",[1]; [4],1.327 ± .035 g
same,"KW/BW, kidney weight to body weight",[1]; [4],3.483 ± .069 g/kg
same,"LVW, left ventricular weight",[1]; [4],.696 ± .023 g
same,"SW, spleen weight",[1]; [4],.924 ± .068 g
same,"SW/BW, spleen weight to body weight",[1]; [4],2.415 ± .149 g/kg
same,"VW, ventricular weight",[1]; [4],.914 ± .029 g
same,"ΔBW, BW-BWO",[1]; [4],88.3 ± 5.0 g
same,Inhibition of phenylephrine-induced myocyte spreading,[2],can also inhibit spreading induced by phenylephrine
